From patent CN111320685A
Values joined by “and” are separate entries in the source; they are usually repeats but may differ in a detail not shown here. Equal values may be shown once.

Key:
[1] = biological target: H7N9病毒的HA蛋白(购自ACROBiosystems) (H7N9 influenza virus); test: BLI (PALL Fortebio), 3F12 captured on protein A sensor, HA antigen in solution
[2] = biological target: H7N9病毒的HA蛋白(购自ACROBiosystems) (H7N9 influenza virus); test: ELISA, HA coated, supernatant of transfected 293F cells, anti-human IgG-HRP
[3] = biological target: H7N9病毒 A/Anhui/1/2013 (血凝素HA on virus) (influenza A virus A/Anhui/1/2013 (H7N9)); test: cell-based or functional assay

B1: 抗H7N9全人源单克隆抗体3F12 (antibody, V domains shown)
VH: QVQLVESGAEVKKPGASVKVSCKASGYIFNSYDINWVRQATGQGLEWMGWMTPDSGDNGFAQKFQGRVTMTRNTSITTAYMELSSLTSEDTAVYYCANGTADCSSGGSCYTWFDPWGQGTLVTVSS
VL: SSELTQDPAVSVALGQTVRITCQGDRALRSYYASWYQQKPGQAPVLVIYGKTNRPSGIPDRFSGSSSGNTASLTITGAQAEDEADYYCTSRDNSGYHLVFGGGTKLTVLV
Which Kd [1] does the source give for B1 here?
Its Kd is 3.5 nM.

And the OD 450nm [2]?
The OD 450nm was 2.31 OD450 and 2.78 OD450 and 2.06 OD450.

And the 中和实验 IC50 (微量中和-ELISA, MDCK细胞) [3]?
Its 中和实验 IC50 (微量中和-ELISA, MDCK细胞) is 14.3 µg/mL.
